Earlier results as cited in publication PMC4628734.

Molecular target: Cdc25C (Homo sapiens) (UniProt P30307)
UniProt P30307, sequence (P30307 whole entry, looked up): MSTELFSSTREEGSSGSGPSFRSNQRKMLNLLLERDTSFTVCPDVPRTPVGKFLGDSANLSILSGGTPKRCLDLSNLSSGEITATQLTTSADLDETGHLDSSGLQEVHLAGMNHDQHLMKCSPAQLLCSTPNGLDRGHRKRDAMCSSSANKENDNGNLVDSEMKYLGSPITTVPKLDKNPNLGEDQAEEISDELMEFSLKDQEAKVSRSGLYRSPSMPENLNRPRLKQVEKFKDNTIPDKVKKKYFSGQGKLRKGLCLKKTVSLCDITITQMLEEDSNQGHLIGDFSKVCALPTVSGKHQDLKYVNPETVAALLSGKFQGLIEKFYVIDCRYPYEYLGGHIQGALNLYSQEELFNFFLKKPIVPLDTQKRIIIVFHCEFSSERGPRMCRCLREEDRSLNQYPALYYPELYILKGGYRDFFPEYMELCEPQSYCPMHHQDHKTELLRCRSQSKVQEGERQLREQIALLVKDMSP

- Kd: 1800 nM
Substance: PLK-1 PBD (from UniProt P53350)
